Test results from patent US20150246136A1 (Bayer, published 2015).

B1: Example 98, conjugate of anti-mesothelin antibody MF-Ta (antibody, human IgG1, lambda, V domains shown)
VH: QVELVQSGAEVKKPGESLKISCKGSGYSFTSYWIGWVRQAPGKGLEWMGIIDPGDSRTRYSPSFQGQVTISADKSISTAYLQWSSLKASDTAMYYCARGQLYGGTYMDGWGQGTLVTVSS
VL: DIALTQPASVSGSPGQSITISCTGTSSDIGGYNSVSWYQQHPGKAPKLMIYGVNNRPSGVSNRFSGSKSGNTASLTISGLQAEDEADYYCSSYDIESATPVFGGGTKLTVLG
modifications: toxophore-linker on Cys sulfur, sites not given
B2: Example 103, conjugate of anti-mesothelin antibody MF-Ta (antibody, human IgG1, lambda, V domains shown)
VH: B1 VH
VL: B1 VL
modifications: toxophore-linker on Cys sulfur, sites not given
B3: Example 102, conjugate of anti-mesothelin antibody MF-Ta (antibody, human IgG1, lambda, V domains shown)
VH: B1 VH
VL: B1 VL
modifications: toxophore-linker on Lys NH, sites not given
B4: Example 136, conjugate of anti-mesothelin antibody MF-Ta (antibody, human IgG1, lambda, V domains shown)
VH: B1 VH
VL: B1 VL
modifications: toxophore-linker on Lys NH, sites not given
B5: Example 104, conjugate of anti-mesothelin antibody MF-Ta (antibody, human IgG1, lambda, V domains shown)
VH: B1 VH
VL: B1 VL
modifications: toxophore-linker on Lys NH, sites not given
B6: Example 109, conjugate of anti-mesothelin antibody MF-Ta (antibody, human IgG1, lambda, V domains shown)
VH: B1 VH
VL: B1 VL
modifications: toxophore-linker on Cys sulfur, sites not given
B7: Example 112, conjugate of anti-mesothelin antibody MF-Ta (antibody, human IgG1, lambda, V domains shown)
VH: B1 VH
VL: B1 VL
modifications: toxophore-linker on Cys sulfur, sites not given
B8: Example 101, conjugate of anti-mesothelin antibody MF-Ta (antibody, human IgG1, lambda, V domains shown)
VH: B1 VH
VL: B1 VL
modifications: toxophore-linker on Cys sulfur, sites not given
B9: Example 114, conjugate of anti-mesothelin antibody MF-Ta (antibody, human IgG1, lambda, V domains shown)
VH: B1 VH
VL: B1 VL
modifications: toxophore-linker on Cys sulfur, sites not given
B10: Example 131, conjugate of anti-mesothelin antibody MF-Ta (antibody, human IgG1, lambda, V domains shown)
VH: B1 VH
VL: B1 VL
modifications: toxophore-linker on Cys sulfur, sites not given
B11: Example 100, conjugate of anti-mesothelin antibody MF-Ta (antibody, human IgG1, lambda, V domains shown)
VH: B1 VH
VL: B1 VL
modifications: toxophore-linker on Cys sulfur, sites not given
B12: Example 135, conjugate of anti-mesothelin antibody MF-Ta (antibody, human IgG1, lambda, V domains shown)
VH: B1 VH
VL: B1 VL
modifications: toxophore-linker on Cys sulfur, sites not given
B13: Example 129, conjugate of anti-mesothelin antibody MF-Ta (antibody, human IgG1, lambda, V domains shown)
VH: B1 VH
VL: B1 VL
modifications: toxophore-linker on Cys sulfur, sites not given
B14: Example 110, conjugate of anti-mesothelin antibody MF-Ta (antibody, human IgG1, lambda, V domains shown)
VH: B1 VH
VL: B1 VL
modifications: toxophore-linker on Cys sulfur, sites not given
B15: Example 134, conjugate of anti-mesothelin antibody MF-Ta (antibody, human IgG1, lambda, V domains shown)
VH: B1 VH
VL: B1 VL
modifications: toxophore-linker on Cys sulfur, sites not given
B16: Example 137, conjugate of anti-mesothelin antibody MF-Ta (antibody, human IgG1, lambda, V domains shown)
VH: B1 VH
VL: B1 VL
modifications: toxophore-linker on Cys sulfur, sites not given
B17: Example 140, conjugate of anti-mesothelin antibody MF-Ta (antibody, human IgG1, lambda, V domains shown)
VH: B1 VH
VL: B1 VL
modifications: toxophore-linker on Lys NH, sites not given
B18: Example 132, conjugate of anti-mesothelin antibody MF-Ta (antibody, human IgG1, lambda, V domains shown)
VH: B1 VH
VL: B1 VL
modifications: toxophore-linker on Lys NH, sites not given
B19: Example 139, conjugate of anti-mesothelin antibody MF-Ta (antibody, human IgG1, lambda, V domains shown)
VH: B1 VH
VL: B1 VL
modifications: toxophore-linker on Cys sulfur, sites not given
B20: Example 113, conjugate of anti-mesothelin antibody MF-Ta (antibody, human IgG1, lambda, V domains shown)
VH: B1 VH
VL: B1 VL
modifications: toxophore-linker on Lys NH, sites not given
B21: Example 115, conjugate of anti-mesothelin antibody MF-Ta (antibody, human IgG1, lambda, V domains shown)
VH: B1 VH
VL: B1 VL
modifications: toxophore-linker on Cys sulfur, sites not given
B22: Example 107, conjugate of anti-mesothelin antibody MF-Ta (antibody, human IgG1, lambda, V domains shown)
VH: B1 VH
VL: B1 VL
modifications: toxophore-linker on Cys sulfur, sites not given
B23: Example 106, conjugate of anti-mesothelin antibody MF-Ta (antibody, human IgG1, lambda, V domains shown)
VH: B1 VH
VL: B1 VL
modifications: toxophore-linker on Cys sulfur, sites not given
B24: Example 130, conjugate of anti-mesothelin antibody MF-Ta (antibody, human IgG1, lambda, V domains shown)
VH: B1 VH
VL: B1 VL
modifications: toxophore-linker on Cys sulfur, sites not given
B25: Example 138, conjugate of anti-mesothelin antibody MF-Ta (antibody, human IgG1, lambda, V domains shown)
VH: B1 VH
VL: B1 VL
modifications: toxophore-linker on Cys sulfur, sites not given
B26: Example 99, conjugate of anti-mesothelin antibody MF-Ta (antibody, human IgG1, lambda, V domains shown)
VH: B1 VH
VL: B1 VL
modifications: toxophore-linker on Cys sulfur, sites not given
B27: Example 105, conjugate of anti-mesothelin antibody MF-Ta (antibody, human IgG1, lambda, V domains shown)
VH: B1 VH
VL: B1 VL
modifications: toxophore-linker on Lys NH, sites not given
B28: Example 108, conjugate of anti-mesothelin antibody MF-Ta (antibody, human IgG1, lambda, V domains shown)
VH: B1 VH
VL: B1 VL
modifications: toxophore-linker on Cys sulfur, sites not given
B29: Example 111, conjugate of anti-mesothelin antibody MF-Ta (antibody, human IgG1, lambda, V domains shown)
VH: B1 VH
VL: B1 VL
modifications: toxophore-linker on Cys sulfur, sites not given
B30: Example 133, conjugate of anti-mesothelin antibody MF-Ta (antibody, human IgG1, lambda, V domains shown)
VH: B1 VH
VL: B1 VL
modifications: toxophore-linker on Cys sulfur, sites not given

Target: Mesothelin (SwissProt reference Q13421-3) (Homo sapiens, UniProt Q13421 37-622)
Assay: cell-based or functional assay

Row | Binder | IC50 (nM), HT29 meso+ cells, MTT proliferation assay
1 | B1 | 1.7 nM
2 | B2 | 10 nM
3 | B3 | 7.2 nM
4 | B4 | 1.6 nM
5 | B5 | 1.8 nM
6 | B6 | 0.09 nM
7 | B7 | 0.018 nM
8 | B8 | 3 nM
9 | B9 | 0.6 nM
10 | B10 | 0.09 nM
11 | B11 | 2 nM
12 | B12 | 0.25 nM
13 | B13 | 5.3 nM
14 | B14 | 0.002 nM
15 | B15 | 0.03 nM
16 | B16 | 0.04 nM
17 | B17 | 6.8 nM
18 | B18 | 3.3 nM
19 | B19 | 70 nM
20 | B20 | 0.4 nM
21 | B21 | 0.06 nM
22 | B22 | 3 nM
23 | B23 | 0.8 nM
24 | B24 | 0.13 nM
25 | B25 | 0.3 nM
26 | B26 | 0.27 nM
27 | B27 | 0.6 nM
28 | B28 | 0.74 nM
29 | B29 | 0.7 nM
30 | B30 | 2.1 nM
